# B1: ARG, wild type, constructed from mouse cDNA (recombinant) (protein)
# chain: MGQQVGRVGEAPGLQQPQPRGIRGSSAARPSGRRRDPAGRTADAGFNVFTQHDHFASCVEDGFEGDKTGGSSPEVLHRPFGCDAESQALNEAIRWSSKENLLGATESDPNLFVALYDFVASGDNTLSITKGEKLRVLGYNQNGEWSEVRSKNGQGWVPSNYITPVNSLEKHSWYHGPVSRSAAEYLLSSLINGSFLVRESESSPGQLSISLRYEGRVYHYRINTTTDSKVYVTAESRFSTLAELVHHHSTVADGLVTTLHYPAPKCNKPTVYGVSPIHDKWEMERTDITMKHKLGGGQYGEVYVGVWKKYSLTVAVKTFKEDTMEVEEFLKEAAVMKEIKHPNLVQLLGVCTLEPPFYIVTEYMPYGNLLDYLRECSREEVTAVVLLYMATQISSAMEYLEKKNFIHRDLAARNCLVGENHVVKVADFGLSRLMTGDTYTAHAGAKFPIKWTAPESLAYNTFSIKSDVWAFGVLLWEIATYGMSPYPGIDLSQVYDLLEKGYRMEQPEGCPPKVYELMRACWKWSPADRPSFAETHQAFETMFHDSSISEEVAEELGRTASSSSVVPYLPRLPLLPSKTRTLRKQGENKENLDGGLDAAESLASSSAPAGFIRSTQASSGSPALPRKQRDKSPSSLLEDAKETCFTRDRKGGFFSSFMKKRNAPTPPKRSSSFREMENQPHKKYELTGNFSPVASLQNADGFSVAPSQQEPNLVPAKCYGGSFAQRNLCADDDSGGGGGSGTAGGGWSGITGFFTPRLIKKTLGLRAGKPTASDDTSKPFPRSNSTSSMSSGLPEQDRMAMTLPRNCQRSKLQLERTVSTSSQPEENVDRANDMLPKKSEEGAAPARERPKAKLLPRGATALPLRAPDPAITESDSPGVGVAGVAAAPKGKERNGGTRLGVAGVPEDGEQLGWSSPAKAVAVLPTTHNHKVPVLISPTLKHTPADVQLIGTDSQGNKFKLLSEHQVTSSGDKDRPRRVKPKCAPPPPPVMRLLQHPSTCSDPEEEPTAPPAGQHTPETQEGGKKAAPGPVPSSGKPGRPVMPPPQVPLPTSSISPAKMANGTAGTKVALRKTKQAAEKISADKISKEALLECADLLSSAITEPVPNSQLVDTGHQLLDYCSGYVDSIPQTRNKFAFREAVSKLELSLQELQVSSTAAGVPGTNPVLNNLLSCVQEISDVVQR
# Target: T1, Cortactin isoform 2 (recombinant, purified from baculovirally infected insect cells)
# T1 chain: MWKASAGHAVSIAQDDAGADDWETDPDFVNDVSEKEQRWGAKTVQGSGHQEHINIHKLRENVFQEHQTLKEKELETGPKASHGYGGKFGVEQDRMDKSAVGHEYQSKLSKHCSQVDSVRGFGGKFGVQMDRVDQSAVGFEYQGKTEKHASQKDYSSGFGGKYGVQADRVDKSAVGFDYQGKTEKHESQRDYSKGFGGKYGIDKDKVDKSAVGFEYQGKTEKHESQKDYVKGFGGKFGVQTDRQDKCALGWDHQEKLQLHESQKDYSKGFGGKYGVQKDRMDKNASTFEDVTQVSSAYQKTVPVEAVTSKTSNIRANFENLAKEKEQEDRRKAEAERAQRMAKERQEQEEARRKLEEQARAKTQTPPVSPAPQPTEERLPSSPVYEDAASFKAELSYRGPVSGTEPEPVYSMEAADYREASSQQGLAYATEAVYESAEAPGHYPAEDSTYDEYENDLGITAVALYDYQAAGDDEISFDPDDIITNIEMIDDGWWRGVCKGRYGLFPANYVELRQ
protein,measurement,value
B1,KM (steady-state in vitro kinase assay),"KM of 110 nM and 60 nM for ABL and ARG, respectively"
same,kcat (steady-state in vitro kinase assay),The kcat for ABL and ARG is 0.05 min-1

# Source: patent US20060141529
